We go through nine substances from article PMC8444619.

Holding throughout (assay): cross-linking
Assay [1] deals with NS4B^HA A180-TAG (azF) (hepatitis C virus).
The target in assay [2] is NS4B^HA K162-TAG (azF) (hepatitis C virus).
Assay [3] addresses NS5A^HA W84-TAG (azF) (hepatitis C virus).
In assay [4] the target is NS4B^HA I96-TAG (azF) (hepatitis C virus).
Assay [5] deals with NS5A^HA I15-TAG (azF) F36A/I37A/S38A/R112A/E148A (hepatitis C virus).
Assay [6] has as its target NS5A^HA W84-TAG (azF) D18A (hepatitis C virus).
Assay [7] has as its target NS4B^HA M80-TAG (azF) (hepatitis C virus).
For assay [8], the target named is HA-tagged GST V125-TAG (azF) (E. coli) (UniProt P0A9D2).
For assay [9], the target named is NS4B^HA (HA-tagged HCV NS4B, wild type, in NS3-5B-4B^HA) (hepatitis C virus).

As a reminder, the stoichiometry N is the number of molecules, sites or subunits per partner or assembly.

“NS4B^HA A180-TAG (azF) (natural protein)” returned a stoichiometry N in assay [1] of 2.

On to “NS4B^HA K162-TAG (azF) (natural protein)”, for which the stoichiometry N in assay [2] stood at 2.

In the case of NS5A^HA W84-TAG (azF) (natural protein), in [3], the stoichiometry N was 2.

In turn, NS4B^HA I96-TAG (azF) (natural protein) came in with a stoichiometry N in [4] of 2.

Regarding “NS5A^HA I15-TAG (azF) F36A/I37A/S38A/R112A/E148A (natural protein)”, in [5], the percent of the control level (% of the control level) amounted to 55.

In assay [6], “NS5A^HA W84-TAG (azF) D18A (natural protein)” had a percent of the control level (% of the control level) of 66.

In the case of NS4B^HA M80-TAG (azF) (natural protein), the stoichiometry N in [7] is 2.

Consider “HA-tagged GST V125-TAG (azF) (from UniProt P0A9D2 1-201) (enzyme)”, for which the stoichiometry N in assay [8] was found to be 2.

In assay [9], “NS4B^HA (HA-tagged HCV NS4B, wild type, in NS3-5B-4B^HA) (natural protein)” came in with a stoichiometry N of 2.
